Laboratory results published in paper PMC3402909 (Biopolymers, 2011).
Blank lines part the entries; values can stand above or below the molecule they belong to. Where a SMILES comes first, the peptide text is derived from it.

How the values were obtained:
Grb2-Sos1 association = Grb2-Sos1 association (Rattus norvegicus, UniProt P62994); experiment: Blockade of Grb2-Sos1 association in PC12 cell lysates; format: biochemical, human; settings: 1 μM peptide, PC12 cell lysate
[1] = target: Sos1 WT peptide 1 PEP (Homo sapiens) (UniProt Q07889); settings: cited from earlier work
Grb2 SH3 N-domain = experiment: other fluorescence titration

Sequence of Grb2 N-terminal SH3 (P62993 1-58): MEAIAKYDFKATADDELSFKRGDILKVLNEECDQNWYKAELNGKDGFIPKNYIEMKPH

inhibition of Grb2-Sos1 association (Grb2-Sos1 association): little inhibition
Molecule: CC(=O)N1CCC[C@H]1C(=O)N[C@@H](CCCNC(=N)N)C(=O)N[C@H](C(=O)N1CCC[C@H]1C(=O)N1CCC[C@H]1C(=O)N1CCC[C@H]1C(=O)N1CCC[C@H]1C(=O)N[C@H](C(=O)N[C@@H](CCCNC(=N)N)C(=O)N[C@@H](CCCNC(=N)N)C(N)=O)C(C)C)C(C)C [Peptide 13, Ac-P-R-V-P-P-P-P-V-R-R-NH2] (Ac-PRVPPPPVRR-NH2)

Molecule: Grb2 N-terminal SH3 (from UniProt P62993)
Kd [1]: 39 µM

Kd (Grb2 SH3 N-domain): 173 µM
Molecule: Ac-PRVPPPPVRR-NH2 [scrambled peptide Ac-P-R-V-P-P-P-P-V-R-R-NH2 (13)]
